The numbers were not newly measured in paper PMC10795913 (The Journal of Clinical Endocrinology and Metabolism, 2023), which cites them from elsewhere.

This series concerns patients. Conditions: different assays, not directly comparable; cited from earlier work.

In the case of albiglutide, the “ADA incidence in published studies” value is on record as 2.5%.
For dulaglutide, the “ADA incidence in published studies” value is listed as “up to 4.1%”.
